Source: the supplement of paper PMC10567573
± gives the standard deviation.

Assay: protein stability index of a GFP-peptide fusion (GPS, HEK-293T) (PSI 1-6); higher = more stable
[1] = treatment: DMSO, c terminus: a fixed tail appended
[2] = treatment: MLN4924 1 uM, 8 h, c terminus: a fixed tail appended
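Further: 24-mer peptide tiles fused after GFP, lentivirally expressed, FACS-sorted into six equal bins by GFP/DsRed ratio, decoded by Illumina sequencing, PSI is the read-weighted mean bin number.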

Sequence	protein stability index [1]	protein stability index [2]	protein stability index (treatment: DMSO, c terminus: native)	protein stability index (treatment: MLN4924 1 uM, 8 h, c terminus: native)
QELIQEAKPRATWTLKLDGNLQLD [RTP4]	3.886 ± 0.038	3.82 ± 0.32	–	–
ESPSTLQVLPDSESLPRSEIDEKV [MAGEA10]	5.62 ± 0.19	5.63 ± 0.3	–	–
VLQALFYLLDRAVDSFETQRNGLV [PTPN9]	2.45 ± 0.98	2.66 ± 0.62	–	–
ATTYKHGVLTRKTHADMDGKRTPR [PSD2]	4.44 ± 0.16	4.63 ± 0.26	–	–
EAASFLQILPVLDFCKVFLISGVT [KLHL13]	3.43 ± 0.78	2.96 ± 0.13	–	–
YNNQSLGHGSHSFIYYENMLLGVP [PKD2L1]	2.16 ± 0.21	2.23 ± 0.37	–	–
NPNSSSGKGSGGNAGSYIPSYTSW [DLX1]	3.44 ± 0.14	3.43 ± 0.4	–	–
DEGGFTCFFRDHSYQEEAAMELKV [MOG]	3.57 ± 0.26	3.7 ± 0.34	–	–
GFFEEKGAIFCPPCYDVRYAPSCA [PDLIM7]	2.26 ± 0.22	2.58 ± 0.3	–	–
DSEDFPQAAKQIKDGVTMAPAFRL [FSD1]	4.24 ± 0.11	4.33 ± 0.28	–	–
QPKEKIQAIIESCSRQFPEFQERA [NOL4L]	3.7 ± 0.36	3.85 ± 0.1	–	–
KWTRVASMSTRRLGVAVAVLGGFL [KLHL20]	2.18 ± 0.11	2.08 ± 0.13	–	–
PGRRDEDAGEGIQCSQRMLSFSDA [TMEM175]	5.07 ± 0.18	4.91 ± 0.3	–	–
SPSTLIGSLRTLELGSESQGASES [HDAC6]	5.08 ± 0.29	4.92 ± 0.33	–	–
APQGGMAALNMSLGMVTPVNDLRG [ADD1]	3.83 ± 0.23	3.77 ± 0.097	–	–
YIKVDWQRVEKDMKKAKEQLKIRK [FUNDC2]	2.46 ± 0.61	2.94 ± 0.74	–	–
GIESMDQCRHTLEQHNWNIEAAVQ [FAF2]	3.78 ± 0.2	4.08 ± 0.19	–	–
VQKNILAAASPYIRTKLNYNPPKD [GAN]	2.97 ± 0.34	3.24 ± 0.38	–	–
AKQLQAVKRKIRDESLCPQHHEAL [TRIM39]	3.99 ± 0.2	3.97 ± 0.19	–	–
AIVGGMALGVAGLAGLIGLAVSKS [FIS1]	3.38 ± 0.82	3.12 ± 0.51	–	–
PEARSRDATPPVSPINMEDQERIK [JUNB]	5.37 ± 0.38	5.42 ± 0.33	–	–
EAIQPYRDRLRSRLEALSTERDEI [TRIM15]	4.61 ± 0.12	4.52 ± 0.14	–	–
MSTEEQYRIRQVNIYYYLEDDSMS [EFHC1]	2.19 ± 0.26	2.13 ± 0.3	–	–

Sequence	protein stability index [1]	protein stability index [2]	protein stability index (treatment: DMSO, c terminus: native)	protein stability index (treatment: MLN4924 1 uM, 8 h, c terminus: native)
RIHVRRHITHDERPHGQQIVFKD [KCTD13]	–	–	4.31 ± 0.24	4.33 ± 0.32
IIKMATARQETKEMARKVIEHCSN [ZER1]	2.94 ± 0.35	3.08 ± 0.13	–	–
SKFKKLMKQGGAALEGSALANGRA [DLX1]	3.78 ± 0.34	4 ± 0.26	–	–
FCLQKLISLHPFNPWNWGKLAEAY [C8orf76]	2.85 ± 0.49	2.82 ± 1.3	–	–
IVGNQVQGAPASSFVYVNPEDGRI [PCDHGC5]	3.46 ± 0.073	3.48 ± 0.21	–	–
EPVIKVAAIDNGLAFPLKHPDSWR [PI4K2A]	3.41 ± 0.28	3.02 ± 0.23	–	–
RQFEFSVDSFQIILDSLLFFYDCS [TENT5C]	3.06 ± 0.57	3.04 ± 0.61	–	–
MPNGCSDDVLPWRRTAENKLDTKY [DCTD]	4 ± 0.1	3.87 ± 0.29	–	–
LRENVPRVIMIVTDGRPQDSVAEV [MATN2]	3.088 ± 0.005	3.09 ± 0.17	–	–
LSTPDSQSLRCDLIRYICGVVHPS [INTS3]	2.29 ± 0.46	2.29 ± 0.3	–	–
VLSSTPDHSFSLELGSEVDITEGD [ATF4]	5.32 ± 0.43	5.44 ± 0.11	–	–
GYDHLWDETLSSSHQKCPQLGGPE [PLEKHN1]	4.19 ± 0.3	4.31 ± 0.32	–	–
RDFRPTDQEEIKTLERYMCSRFFI [TENT5C]	2.63 ± 0.39	2.71 ± 0.17	–	–
FPPEGNMEDKEMTGPQLPESLEDV [ZNF263]	5.58 ± 0.21	5.48 ± 0.22	–	–
PDECGKTEFTRFLCSSPLEAETPP [ATE1]	4.8 ± 0.071	4.88 ± 0.13	–	–
LALIDYLTQKRSQLVKKLNDSDHQ [VPS39]	2.51 ± 0.14	2.77 ± 0.69	–	–
YETKKHLVQLPNINRVSTCYSEEI [PPEF2]	3.33 ± 0.32	3.23 ± 0.53	–	–
RHMEAVKAQLLEQAQGQLRELLDR [SOAT2]	3.07 ± 0.37	3.08 ± 0.086	–	–
RPRPQGRSVSEPRDQHPQPSLGDS [RTN2]	5.04 ± 0.31	5.296 ± 0.046	–	–
LNVHDLDSEQNGQVTCSILAYLPF [PCDHGA10]	2.24 ± 0.22	2.19 ± 0.41	–	–
HRSYLGPGSTSPLETSGNPNGRYG [SLC6A17]	4.27 ± 0.062	4.26 ± 0.29	–	–
GLFVPSLLCGAAFGRLVANVLKSY [CLCN6]	2.2 ± 0.55	2.37 ± 0.64	–	–
VQREKDLPNYNWNSFGLRFGKREA [KISS1]	3.28 ± 0.12	3.19 ± 0.18	–	–

Sequence	protein stability index [1]	protein stability index [2]	protein stability index (treatment: DMSO, c terminus: native)	protein stability index (treatment: MLN4924 1 uM, 8 h, c terminus: native)
SAHPVEVFSFDLHEPLSKERVEAF [TMEM175]	3.82 ± 0.19	3.82 ± 0.3	–	–
KKFYEAFSKNLKLGIHEDSTNRRR [HSP90AB1]	3.39 ± 0.33	3.59 ± 0.51	–	–
GAGIIVTEAGGVLMDVTGGPFDLM [IMPA1]	2.28 ± 0.4	2.48 ± 0.39	–	–
TDEFRELRATVERMGLMKANHVFF [FADS1]	2.48 ± 0.56	2.12 ± 0.21	–	–
AGTKVFEVPEMSPVTCCDVSSNNR [TLE6]	4.13 ± 0.26	4.17 ± 0.33	–	–
TKVGSFMIRESETKKGFYSLSVRH [SLA]	2.68 ± 0.37	2.66 ± 0.69	–	–
RAESTANAGQSDNRSLAEACSEGD [ANKRD17]	5.55 ± 0.24	5.53 ± 0.16	–	–
NLIYRDVKPENFLIGRPGNKTQQV [CSNK1G3]	3.27 ± 0.1	3.25 ± 0.22	–	–
NMEELTEVITAAEFHPHHCNTFVY [PPP2R2B]	2.38 ± 0.25	2.59 ± 0.33	–	–
QDLCCRAVVSCTPVHLVDKLPLPI [RAB40B]	2.4 ± 0.27	2.09 ± 0.56	–	–
RMAIGYLHSHRHLYPEGIGARQQQ [POMT2]	2.9 ± 0.22	3.08 ± 0.21	–	–
AGDEAVFAQYDSFHVDSAAEYYRL [TNXB]	3.51 ± 0.38	3.68 ± 0.13	–	–
QPGPSGAPAQRATRGFLRSPSSDL [RETREG3]	3.97 ± 0.24	4.27 ± 0.23	–	–
FDLCDRTFSLKTVLMIAIQLISRM [CSNK1G3]	2.89 ± 0.21	2.54 ± 0.46	–	–
EECIPEHMVRESKIMEAESQKATR [FAN1]	5.12 ± 0.77	4.72 ± 1.2	–	–
NPKWTKWLQKLCCPCCFGRDCLVL [PI4K2A]	2.79 ± 0.3	2.72 ± 0.15	–	–
QEYAAKIINTKKLSARDHQKLERE [CAMK2A]	4.71 ± 0.22	4.78 ± 0.19	–	–
EHVSRALCIHTGRELRCKVFPIKH [TRIB1]	2.21 ± 0.13	2.61 ± 0.3	–	–
RAFLQTYSHEVSLTADSRKSHLIF [PCDHGA10]	2.2 ± 0.34	2.08 ± 0.24	–	–
RERKKLVLENLEDSCVLTGPDDSL [TRIB3]	4.91 ± 0.26	4.95 ± 0.36	–	–
PSSYNCSQSILPLEHGSIYIPSSY [ESR2]	2.17 ± 0.2	2.26 ± 0.26	–	–
INCQLSDPSSTKPGTLLKTSPSPE [TRIM14]	4.79 ± 0.3	4.88 ± 0.31	–	–
DESVVMPESQMCRKFSRECEDQKQ [NEUROD6]	5.46 ± 0.3	5.43 ± 0.24	–	–

Sequence	protein stability index [1]	protein stability index [2]	protein stability index (treatment: DMSO, c terminus: native)	protein stability index (treatment: MLN4924 1 uM, 8 h, c terminus: native)
WSVTGKAEPAMPGRLYVHPDSPAT [TBX5]	3.67 ± 0.17	3.62 ± 0.22	–	–
ALQEKLWNVAAPLYLKQSDLASAA [INTS4]	2.31 ± 0.17	2.27 ± 0.3	–	–
PAPPSDALLDLHFPSDHLGDLGDP [TFE3]	5 ± 0.23	5.1 ± 0.17	–	–
HNAVTSHQRPGWPGQPHSPFPHPT [NCF4]	3.11 ± 0.17	3.67 ± 0.21	–	–
GTPMALIVISYIHVAAAVLRIRSV [OR3A1]	3.16 ± 0.48	3.24 ± 0.074	–	–
QQQVKTNGAGVTVLRREISELRTK [FBXO28]	4.32 ± 0.19	4.44 ± 0.32	–	–
DQKVIELVKKYGTKQWTLIAKHLK [MYBL2]	2.77 ± 0.91	3.12 ± 0.49	–	–
GFTPDRLSSSCCHTVPDFHLSSPA [PLK2]	3.02 ± 0.22	3.15 ± 0.16	–	–
VHSDLSSIVILDNSPGAYRSHPDN [CTDNEP1]	3.6 ± 0.15	3.72 ± 0.27	–	–
IHTGERPYKCPECGKSFSRSSHLV [ZNF263]	2.66 ± 0.45	3.18 ± 0.55	–	–
PACLGQPHTPGKPTSSCTSRSAPP [FOXJ1]	4.51 ± 0.13	4.69 ± 0.11	–	–
GPDGHLPAVATLCDLFDREIVVTI [ESRRA]	3.01 ± 0.7	2.91 ± 0.41	–	–
KLVADFQRYILYWRKRFTEQPITD [ZNF277]	1.99 ± 0.24	2.19 ± 0.44	–	–
KGKQPTSAENSVAKKEDKVPVKKQ [NANOGP8]	5.37 ± 0.32	5.44 ± 0.14	–	–
ANAQIQILTRSWEEVSTLNAQIPE [CD207]	3.52 ± 0.18	3.53 ± 0.2	–	–
GIQQLLQAEKRAAEKVSEARKRKN [ATP6V1G1]	4.12 ± 0.62	3.84 ± 0.74	–	–
KGGAVAADGRIEPGDMLLQVNEIN [DVL3]	4.49 ± 0.19	4.59 ± 0.14	–	–
LAQEAEAWLNYPCFKNWDGSPVSS [OAS1]	3.04 ± 0.28	3.11 ± 0.35	–	–
PPPHLLPEKHQVPEKLIWGDQDPL [WDR88]	4.53 ± 0.23	4.44 ± 0.15	–	–
VIFALCWFPLHLSRILKKTVYNEM [EDNRA]	3 ± 0.64	2.92 ± 0.68	–	–
